A word on the Kd: it is the free concentration of one partner at which half of the binding sites on the other are occupied at equilibrium, for simple one-to-one binding. As usually defined, the koff is the rate constant with which the complex falls apart. Lower therefore signals slow dissociation. As a reminder, the kon is the rate constant with which the complex forms. A high value points to faster complex formation.

The values below come from paper PMC6303191 (Immunity, 2018).

Several values for one entry are separate records, joined by “and”; a condition that tells them apart may be missing. Identical values can stand only once.

Experiment [1] addresses T1, eOD-GT8 (monomer), synthetic construct eOD-GT8-Avi-3C-His (synthetic construct (engineered HIV-1 …)).
Experiment [2] addresses eOD-GT8 (24-mer) (synthetic construct (engineered HIV-1 …)). Put plainly: BLI. Particulars: both partners purified.
Experiment [3] addresses eOD-GT8 (heptamer) (synthetic construct (engineered HIV-1 …)). Briefly: BLI. Particulars: both partners purified.
Experiment [4] addresses T1, eOD-GT8 (monomer), synthetic construct …. Briefly: SPR. The following applies: both partners purified.
Experiment [5] deals with T2, eOD-GT6, synthetic construct eOD-GT6-Avi-3C-His (synthetic construct (engineered HIV-1 …)).
T2 construct: source: produced in house (Duke Human Vaccine Institute and VRC/NIAID)
T2 sequence (heavy, as listed by the source): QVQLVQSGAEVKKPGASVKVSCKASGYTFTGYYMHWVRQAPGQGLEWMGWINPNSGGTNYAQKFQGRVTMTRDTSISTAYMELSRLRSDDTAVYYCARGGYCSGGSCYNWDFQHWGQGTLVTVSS
Put plainly: SPR. The following applies: both partners purified.

Experiment [6] addresses T3, Centromere protein B (Homo sapiens (product PRO-390 from …, UniProt P07199)).
T3 construct: also called centromere B
Briefly: ELISA. The following applies: both partners purified.

The target of experiment [7] is Ubiquitin Protein Ligase E3A (UBE3A) (Homo sapiens, assumed, UniProt Q05086). Put plainly: ELISA. Particulars: both partners purified.
Sequence of Ubiquitin Protein Ligase E3A (UBE3A) (Q05086 whole entry): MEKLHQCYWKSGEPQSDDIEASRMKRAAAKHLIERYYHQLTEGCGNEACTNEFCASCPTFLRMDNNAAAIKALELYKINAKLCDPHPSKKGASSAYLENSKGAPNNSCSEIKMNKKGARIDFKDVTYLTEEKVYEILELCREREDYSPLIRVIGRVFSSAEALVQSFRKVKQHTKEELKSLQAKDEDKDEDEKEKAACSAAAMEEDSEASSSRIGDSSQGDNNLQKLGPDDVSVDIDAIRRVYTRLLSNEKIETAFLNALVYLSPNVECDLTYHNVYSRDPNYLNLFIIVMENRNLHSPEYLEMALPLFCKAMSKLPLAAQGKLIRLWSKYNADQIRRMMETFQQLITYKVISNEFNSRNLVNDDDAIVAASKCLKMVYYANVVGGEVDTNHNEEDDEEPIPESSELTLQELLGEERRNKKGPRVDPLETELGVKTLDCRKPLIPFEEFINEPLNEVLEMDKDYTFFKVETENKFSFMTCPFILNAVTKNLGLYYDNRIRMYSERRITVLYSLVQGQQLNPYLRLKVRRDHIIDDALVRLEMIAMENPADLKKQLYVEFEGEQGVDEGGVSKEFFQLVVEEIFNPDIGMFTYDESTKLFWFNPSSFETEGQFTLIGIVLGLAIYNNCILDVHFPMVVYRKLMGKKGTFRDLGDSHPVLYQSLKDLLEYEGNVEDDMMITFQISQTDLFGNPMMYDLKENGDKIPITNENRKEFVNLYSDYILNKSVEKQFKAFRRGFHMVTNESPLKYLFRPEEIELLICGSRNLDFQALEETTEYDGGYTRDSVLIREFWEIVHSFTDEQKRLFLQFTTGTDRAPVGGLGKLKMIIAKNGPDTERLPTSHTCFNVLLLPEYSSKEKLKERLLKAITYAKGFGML
The target in experiment [8] is Jo-1 antigen (Bos taurus (assumed), UniProt Q2KI84). Briefly: ELISA. Particulars: both partners purified. On the technique in general: ELISA stands for enzyme-linked immunosorbent assay.
Sequence of Jo-1 antigen (P12081 whole entry): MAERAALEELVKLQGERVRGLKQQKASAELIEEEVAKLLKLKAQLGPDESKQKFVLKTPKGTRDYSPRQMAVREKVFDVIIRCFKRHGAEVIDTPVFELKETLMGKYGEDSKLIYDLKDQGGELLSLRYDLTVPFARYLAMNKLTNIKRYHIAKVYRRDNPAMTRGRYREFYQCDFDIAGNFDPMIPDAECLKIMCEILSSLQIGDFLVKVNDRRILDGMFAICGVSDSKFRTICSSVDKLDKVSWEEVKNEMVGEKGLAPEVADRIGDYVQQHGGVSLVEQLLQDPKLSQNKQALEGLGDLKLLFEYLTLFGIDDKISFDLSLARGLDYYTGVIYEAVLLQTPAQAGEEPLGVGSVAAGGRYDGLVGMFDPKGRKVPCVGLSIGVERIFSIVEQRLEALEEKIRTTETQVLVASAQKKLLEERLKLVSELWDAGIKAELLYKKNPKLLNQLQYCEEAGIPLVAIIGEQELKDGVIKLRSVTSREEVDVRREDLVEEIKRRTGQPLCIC
Experiment [9] concerns the target Scl-70 antigen (Bos taurus (assumed), UniProt A0AAA9TV68). Briefly: ELISA. The following applies: both partners purified.
Experiment [10] concerns the target SSB (La) antigen (Bos taurus (assumed), UniProt P10881). Briefly: ELISA. Particulars: both partners purified.

T3 sequence (P07199 whole entry): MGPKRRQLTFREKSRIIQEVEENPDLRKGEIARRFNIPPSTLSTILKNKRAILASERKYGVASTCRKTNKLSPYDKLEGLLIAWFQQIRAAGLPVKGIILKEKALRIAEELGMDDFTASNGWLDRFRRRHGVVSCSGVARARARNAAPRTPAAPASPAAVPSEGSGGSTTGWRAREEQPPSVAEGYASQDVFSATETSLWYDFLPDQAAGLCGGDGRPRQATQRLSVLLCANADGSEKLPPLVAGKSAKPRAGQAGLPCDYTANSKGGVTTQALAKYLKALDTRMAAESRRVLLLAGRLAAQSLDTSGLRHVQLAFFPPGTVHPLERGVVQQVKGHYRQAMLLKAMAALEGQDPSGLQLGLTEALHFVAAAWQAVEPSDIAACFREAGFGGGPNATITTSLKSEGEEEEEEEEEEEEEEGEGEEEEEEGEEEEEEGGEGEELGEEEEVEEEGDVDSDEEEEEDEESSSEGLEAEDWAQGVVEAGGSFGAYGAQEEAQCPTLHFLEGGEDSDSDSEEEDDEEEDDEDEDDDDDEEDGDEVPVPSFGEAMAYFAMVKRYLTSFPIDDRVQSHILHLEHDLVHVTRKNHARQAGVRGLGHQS
Sequence of Scl-70 antigen (P11387 whole entry): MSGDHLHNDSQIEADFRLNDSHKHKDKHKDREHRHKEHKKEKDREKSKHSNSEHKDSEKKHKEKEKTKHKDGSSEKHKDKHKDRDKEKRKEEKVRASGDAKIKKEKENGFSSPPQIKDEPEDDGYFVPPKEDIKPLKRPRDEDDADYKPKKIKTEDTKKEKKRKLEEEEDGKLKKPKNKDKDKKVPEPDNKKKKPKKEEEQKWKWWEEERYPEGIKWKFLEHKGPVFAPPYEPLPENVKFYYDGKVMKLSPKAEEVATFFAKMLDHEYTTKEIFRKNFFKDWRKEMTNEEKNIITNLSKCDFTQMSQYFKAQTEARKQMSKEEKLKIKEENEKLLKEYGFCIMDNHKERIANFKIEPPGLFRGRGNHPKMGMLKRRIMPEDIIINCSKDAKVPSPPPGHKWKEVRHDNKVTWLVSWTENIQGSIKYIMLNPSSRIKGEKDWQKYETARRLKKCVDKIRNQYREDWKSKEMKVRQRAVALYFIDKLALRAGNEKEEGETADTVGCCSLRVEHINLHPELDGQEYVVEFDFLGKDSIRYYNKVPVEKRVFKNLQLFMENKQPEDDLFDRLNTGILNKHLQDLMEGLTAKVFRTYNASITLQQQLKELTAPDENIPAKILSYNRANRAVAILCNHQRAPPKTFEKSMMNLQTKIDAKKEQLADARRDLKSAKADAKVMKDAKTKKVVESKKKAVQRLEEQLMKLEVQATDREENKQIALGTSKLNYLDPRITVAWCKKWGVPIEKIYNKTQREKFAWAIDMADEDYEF
Sequence of SSB (La) antigen (P05455 whole entry): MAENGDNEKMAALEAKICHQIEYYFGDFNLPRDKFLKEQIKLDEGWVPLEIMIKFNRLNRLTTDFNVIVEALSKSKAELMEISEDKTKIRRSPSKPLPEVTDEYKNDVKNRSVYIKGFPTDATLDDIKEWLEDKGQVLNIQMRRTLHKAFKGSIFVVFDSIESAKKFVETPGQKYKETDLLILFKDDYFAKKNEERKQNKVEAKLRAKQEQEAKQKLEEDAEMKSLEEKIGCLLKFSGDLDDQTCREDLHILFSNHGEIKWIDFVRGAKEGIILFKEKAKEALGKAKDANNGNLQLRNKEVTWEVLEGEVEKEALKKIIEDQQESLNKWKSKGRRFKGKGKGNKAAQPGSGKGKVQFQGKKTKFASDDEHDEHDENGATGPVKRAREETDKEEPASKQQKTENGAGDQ
Sequence of eOD-GT8 (heptamer) (synthetic construct (engineered HIV-1 …)) (heavy, as listed by the source): as the sequence (heavy, as listed by the source) above
Sequence of eOD-GT8 (24-mer) (synthetic construct (engineered HIV-1 …)) (heavy, as listed by the source): as above

B1: 12A12 V.Rev (antibody, V domains shown)
VH: not shown
VL: DIQMTQSPSSLSASVGDRVTITCQASQDISNYLNWYQQKPGKAPKLLIYDASNLETGVPSRFSGSGSGTDFTFTISSLQPEDIATYYCAVLEFFGPGTKVEIK
On to B1, for which the binding result in experiment [1] was “binds”.

B2: VRC01 V.Rev (antibody, V domains shown)
VH: not shown
VL: EIVLTQSPGTLSLSPGERATLSCRASQSVSSSYLAWYQQKPGQAPRLLIYGASSRATGIPDRFSGSGSGTDFTLTISRLEPEDFAVYYCQQYEFFGQGTKVQVD
Take B2: the binding result in experiment [1] is “binds”.

B3: VRC18b V.Rev (antibody, V domains shown)
VH: not shown
VL: EIVLTQSPGTLSLSPGERATLSCRASQSVSSSYLAWYQQKPGQAPRLLIYGASSRATGIPDRFSGSGSGTDFTLTISRLEPEDFAVYYCQILEFFGRGTRVEMN
Regarding B3, in experiment [1], the binding result was “binds”.

B4: VRC01 UCA (antibody, V domains shown)
VH: not shown
VL: EIVLTQSPGTLSLSPGERATLSCRASQSVSSSYLAWYQQKPGQAPRLLIYGASSRATGIPDRFSGSGSGTDFTLTISRLEPEDFAVYYCQQYEFFGQGTKLEIK
notes: also called VRC01 lineage unmutated common ancestor; VRC01 UCA IgG
As for B4, the binding result in experiment [2] was “binds”. The binding result in [3] is listed as “binds”. In experiment [4], the Kd was < 0.0001 µM and 0.00025 µM. Moreover, in [5], the Kd is 2.4 µM and 2.5 µM; the koff stood at 0.068 s⁻¹; the kon was determined as 3000 M⁻¹ s⁻¹.

B5: VRC03 V.Rev (antibody, V domains shown)
VH: not shown
VL: EIVLTQSPGTLSLSPGERATLSCRASQSVSSSYLAWYQQKPGQAPRLLIYGASSRATGIPDRFSGSGSGTDFTLTISRLEPEDFAVYYCQQFEFFGLGSELEVH
For the molecule B5, in [1], the binding result is “binds”.

B6: VRC20 V.Rev (antibody, V domains shown)
VH: not shown
VL: QSALTQPASVSGSPGQSITISCTGTSSDVGGYNYVSWYQQHPGKAPKLMIYEVSNRPSGVSNRFSGSKSGNTASLTISGLQAEDEADYYCNAFEFFGGGTKLTVL
Take B6: the binding result in experiment [6] is listed as “binds”.

B7: VRC01 L34M (antibody, V domains shown)
VH: QVQLVQSGGQMKKPGESMRISCRASGYEFIDCTMNWIRLAPGKRPEWMGWLKPRGGAVNYARPLQGRVTMTRDVYSDTAFLELRSLTVDDTAVYFCTRGKNCDYNWDFEHWGRGTPVIVSS
VL: EIVLTQSPGTLSLSPGETAIISCRTSQYGSLAWYQQRPGQAPRLVIYSGSTRAAGIPDRFSGSRWGPDYNLTISNLESGDFGVYYCQQYEFFGQGTKVQVD
B7: in [7], the binding result was “binds”.

B8: DH651.2 with 33TL34 reverted to the germline-encoded 33YM34 (antibody, V domains shown)
VH: QVQLVQSGAQMKKPGESMRISCRASGYEFIDCYMNWIRLAPGRRPEWMGWLKPRGGAVNYARPLQGRVTMTRDVYSDTAFLELRSLTVDDTAVYFCTRGKTCDYNWDFAHWGQGTPVTVSS
VL: EIVLTQSPGTLSLSPGETAIISCRTSQYGSLAWYQQRPGQAPRLVIYSGSTRAAGIPDRFSGSRWGPEYNLTISNLESGDFGVYYCQQYEFFGQGTKVQVD
For the molecule B8, the binding result in [7] is “no binding (tested: 100 μg/ml)”.

B9: VRC01 with 33TL34 reverted to the germline-encoded 33YM34 (antibody, V domains shown)
VH: QVQLVQSGGQMKKPGESMRISCRASGYEFIDCYMNWIRLAPGKRPEWMGWLKPRGGAVNYARPLQGRVTMTRDVYSDTAFLELRSLTVDDTAVYFCTRGKNCDYNWDFEHWGRGTPVIVSS
VL: EIVLTQSPGTLSLSPGETAIISCRTSQYGSLAWYQQRPGQAPRLVIYSGSTRAAGIPDRFSGSRWGPDYNLTISNLESGDFGVYYCQQYEFFGQGTKVQVD
Consider B9, for which the binding result in experiment [7] is given as “no binding (tested: 100 μg/ml)”.

B10: DH651.1 with 33TL34 reverted to the germline-encoded 33YM34 (antibody, V domains shown)
VH: QVQLVQSGGQMKKPGESMRISCRTSGYEFIECYMNWIRLAPGRRPEWMGWLKPRGGAVNYARSFQGRVTMTRDVYSDTAFLELRSLTPDDTAVYFCTRGKDCNYNWDFEHWGRGTPVTVSS
VL: EIVLTQSPHPALLSPGETAIISCRTSQYGSLAWYQQRPGQAPRLVIYSGSTRAAGIPDRFSGSRWGPDYNLTISNLESGDLGVYYCQQYEFFGQGTKVQVD
Consider B10, for which the binding result in [7] is on record as “no binding (tested: 100 μg/ml)”.

B11: VRC02 with 33TL34 reverted to the germline-encoded 33YM34 (antibody, V domains shown)
VH: QVQLVQSGGQMKKPGESMRISCQASGYEFIDCYMNWVRLAPGRRPEWMGWLKPRGGAVNYARPLQGRVTMTRDVYSDTAFLELRSLTADDTAVYYCTRGKNCDYNWDFEHWGRGTPVTVSS
VL: EIVLTQSPGTLSLSPGETAIISCRTSQYGSLAWYQQRPGQAPRLVIYSGSTRAAGIPDRFSGSRWGPDYNLTIRNLESGDFGLYYCQQYEFFGQGTKVQVD
For the molecule B11, in [7], the binding result is given as “no binding (tested: 100 μg/ml)”.

B12: DH651.4 with 33TL34 reverted to the germline-encoded 33YM34 (antibody, V domains shown)
VH: QVQLVQSGGQMKKPGESMRISCRASGYEFIDCYMNWIRLAPGRRPEWMGWLKPRGGAVSYARPLQGRVTMTRDVYSDTAFLELRSLTVDDTAVYFCTRGKTCDYNWDFAHWGQGTPVTVSS
VL: EIVLTQSPGTLSLSPGETAIISCRTSQYGSLAWYQQRPGQAPRLVIYSGSTRAAGIPDRFSGSRWGPEYNLTISNLESGDFGVYYCQQYEFFGQGTKVQVD
Consider B12, for which the binding result in experiment [7] is given as “no binding (tested: 100 μg/ml)”.

B13: VRC01 T33Y (antibody, V domains shown)
VH: QVQLVQSGGQMKKPGESMRISCRASGYEFIDCYLNWIRLAPGKRPEWMGWLKPRGGAVNYARPLQGRVTMTRDVYSDTAFLELRSLTVDDTAVYFCTRGKNCDYNWDFEHWGRGTPVIVSS
VL: EIVLTQSPGTLSLSPGETAIISCRTSQYGSLAWYQQRPGQAPRLVIYSGSTRAAGIPDRFSGSRWGPDYNLTISNLESGDFGVYYCQQYEFFGQGTKVQVD
B13: in experiment [7], the binding result is “no binding (tested: 100 μg/ml)”.

B14: VRC01 VJ.Rev (antibody, V domains shown)
VH: not shown
VL: EIVLTQSPATLSLSPGERATLSCRASQSVSSYLAWYQQKPGQAPRLLIYDASNRATGIPARFSGSGSGTDFTLTISSLEPEDFAVYYCQQYEFFGQGTKLEIK
As for B14, the binding result in experiment [1] is listed as “binds”.

B15: VRC23 V.Rev (antibody, V domains shown)
VH: not shown
VL: EIVMTQSPATLSVSPGERATLSCRASQSVSSNLAWYQQKPGQAPRLLIYGASTRATGIPARFSGSGSGTEFTLTISSLQSEDFAVYYCQQYETFGQGTKVEIK
As for B15, the binding result in experiment [6], in [8], in experiment [9] and in experiment [10] was “binds” each time.
